Results reported in the RNAGym collection of RNA variant scans (doi:10.1073/pnas.2313332121).
Variants at the floor of the assay were thinned out.

B1: TPR 5TU (parent)
chain: GGAUCUUCUCGAUCUAACAAAAAAGACAAAUCUGCCACAAAGCUUGAGAGCAUCUUCGGAUGCAGAGGCGGCAGCCUUCGGUGGCGCGAUAGCGCCAACGUUCUCAACUAUGACACGCAAAACGCGUGCUCCGUUGAAUGGAGUUUAUCAUG

Variants of: B1
Assay: polymerase ribozyme fitness, log enrichment relative to wild type (log ratio); higher = more active; in vitro selection for triplet polymerase activity
Method in brief: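 Mutant libraries were PCR-built and transcribed for each subunit of a heterodimeric triplet polymerase ribozyme and selected for one round in triplicate at −7 °C, frozen, before gel excision of extended constructs and streptavidin-bead capture. Input and output libraries were Illumina-sequenced, keeping genotypes with ≥10 input reads and ≥1 read per output. Fitness is a logarithmic ratio of genotype to wild-type enrichment, in base 2, using inverse-variance-weighted replicate averages.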

First: GGAUCUUCUCGAUCUAACAAAAAAGACAAAUCUGCCACAAAGCUUGAGAGCAUCAUCGGAUGCAGAGGCGGCAGCCUUCGGUAGCGCGAUAGCGCCAACGUUCUCAACUAUGACACGCAAAACGCGUGCUCCGUUGAAUGGAGUUUAUCAUG [U55A G83A]
Second: GGAUCUUCUCGAUCUAACAAAAAAGACAAAUCUGCCACAAAGCUUGAGAGCAUCAUCGGAUGCAGAGGCGGCAGCCUUCGGUGGCGCGAUAGCGCGAACGUUCUCAACUAUGACACGCAAAACGCGUGCUCCGUUGAAUGGAAUUUAUCAUG [U55A C96G G143A]
The “polymerase ribozyme fitness (log ratio)” value of the first is higher: -0.501 for the first, -2.1 for the second.

Compared with GGAUCUUCUCGAUCUAACAAAAAAGACAAAUCUGCCACAAAGCUUGAGAGCAUCAUCGGAUGCAGAGGCGGCAGCCUUCGGUAGCGCGAUAGCGCCAACGUUCUCAACUAUGACACGCAAAACACGUGCUCCGUUGAAUGGAGUUUAUCAUG [U55A G83A G124A], GGAUCUUCUCGAUCUAACAAAAAAGACAAAUCUGCCACAAAGCUUGAGAGCAUCAUCGGAUGCAGAGGCGGCAGCCUUCGGUGGCGCGAUAACGCCAACGUUCUCAACUAUGACACGCAAAACGAGUGCUCCGUUGAAUGGAGUUUAUCAUG [U55A G92A C125A] is lower in “polymerase ribozyme fitness (log ratio)” value: -0.748 for the first, -3.46 for the second.

GGAUCUUCUCGAUCUAACAAAAAAGACAAAUCUGCCACAAAGCUUGAGAGCAUCAUCGGAUUGAGAGGCGGCAGCCUUCGGUGGCGUGAUAGCGCCAUCGUUCUCAACUAUGACACGCAUAACGCGUGCUCCGUUGAAUGGAGUUUAUGAUG [U55A G62U C63G C87U A98U A120U C149G] and GGAUCUUCUCGAUCUAACAAAAAAGACAAAUCUGCCACAAAGCUUGAGAGCAUCAACGGAUGCAGCGGCCGCAGCCUUCGGUGGCGCGAUAGCGCCAACGUUCUCAAUUAUGACACGCAAAACGCGUGCUCCGUUGAAUGGAGUUUAUCAUG [U55A U56A A66C G70C C108U] cannot be ordered by “polymerase ribozyme fitness (log ratio)” value: no more than -4.2 for the first, no more than -4.2 for the second.

First: GGAUCUUCUCGAUCUAACAAAAAAGACAAAUCUGCCACAAAGCUUGAGAGCAUCAUCCGAUGCAGAGGCGGCAGCCUUCGGUGGCGCGAUAGCGCCGACGUUCUCAACUAUGACACGCAAAACGCGUGCUCCGUUGAAUGGAGUUUAUCAUG [U55A G58C A97G]
Second: GGAUCUUCUCGAUCUAACAAAAAAGACAAAUCUGCCACAAAGCUUGAGAGCAUCAUCGGAUACAGAGGCGGCAGCCUUCGGUGGCGCGAUAGCGCUAACGUUCUCAACUAUGACACGCAAAACGCGUGCUCCGUUGAAUGGAGUUUAUCAUG [U55A G62A C96U]
The “polymerase ribozyme fitness (log ratio)” value of the first is higher: 0.512 for the first, -2.14 for the second.

Going from GGAUCUUCUCGAUCUAACAAAAAAGACAAAUCUGCCACAAAGCUUGAGAGCAUCAUCGGAUGCAGAGGCGGCAGCCUUCGGUGGCGCGAUAGCGCCAACGUUCUAAACUAUGACACGCAAAACGCGUGCUCCGUUGAAUGGAGUUUAUCAUG [U55A C105A] to GGAUCUUCUCGAUCUAACAAAAAAGACAAAUCUGCCACAAAGCUUGAGAGCAUCAUCGGAUGCAGAGGCGGCAGCCUUCGGUGGCGCGAUAGCGCCAACGUUCUGAACUAUGACACGCAAAACGCGUGCUCCGUUGAAUGGAGUUUAUCAUG [U55A C105G], the “polymerase ribozyme fitness (log ratio)” value falls from -0.692 to -1.73.

Compared with GGAUCUUCUCGAUCUAACAAAAAAGACAAAUCUGCCACAAAGCUUGAGAGCAUCAUCGGAUGCAGAGGCGGCAGCCUUCGAUGGCGCGAUAGCGCCAACGUUCUCAACUAUGACACGCAAAACGCGUGCUCCGUUGAAUGGAGUUUAUCAUG [U55A G81A], GGAUCUUCUCGAUCUAACAAAAAAGACAAAUCUGCCACAAAGCUUGAGAGCAUCAUCGAAUGCAGAGGCGGCAGUCUUCGGUGGCGCGAUAUCGCCAAGGUUCUCAACUAUGACACGCAAAACGCGUGGUCCGUUGAAGGGAGUUUAUCAUG [U55A G59A C75U G92U C99G C129G U139G] is lower in “polymerase ribozyme fitness (log ratio)” value: -1.9 for the first, no more than -4.2 for the second.

Compared with GGAUCUUCUCGAUCUAACAAAAAAGACAAAUCUGCCACAAAGCUUGAGAGCAUCAUCGGAUGCAGAGGCGGCAGCCUUCGGUGGCGCGAUAGCGCCAACGUUCUCAACUAUGACACGCAAAACGCGUGCUCCGUUGAAUGCAGUUUAUCAUG [U55A G141C], GGAUCUUCUCGAUCUAACAAAAAAGACAAAUCUGCCACAAAGCUUGAGAGCAUCAUCGGAUGCAGAGGCGGCAGCCUUCGGUGGCGCGAUAGCGCCAACGUUCUCAACUAUGACACGCAAAACGAGUGCUCCGUUGAAUGAAGUUUAUCAUG [U55A C125A G141A] is lower in “polymerase ribozyme fitness (log ratio)” value: -0.199 for the first, -4.12 for the second.

Going from GGAUCUUCUCGAUCUAACAAAAAAGACAAAUCUGCCACAAAGCUUGAGAGCAUCAUCUGAUGCAGAGGCGGCAGCCUUCGGUGGCGCGAUAGGGCCAACGUUCUCAACUAUGACACGCAAAACGCGUGCUCCGUUGAAUGGAGUUUAUCAUG [U55A G58U C93G] to GGAUCUUCUCGAUCUAACAAAAAAGACAAAUCUGCCACAAAGCUUGAGAGCAUCAUCGGAUGCAGAGGCGGCAGCCUUCGGUGGCGCGAUAGCUCCAACGUUCUCAACUAUGACACUCAAAACGCGUGCUACGUUAAAUGGAGUUUAUCAUG [U55A G94U G117U C131A G136A], the “polymerase ribozyme fitness (log ratio)” value falls from -3.78 to no more than -4.2.

Compared with GGAUCUUCUCGAUCUAACAAAAAAGACAAAUCUGCCACAAAGCUUGAGAGCAUCAUCGGAUGCAGAGGCGGCAGCCUUCGGUGGCGCGAUAGCGCCAACGUUCUCAACUAUGACACGCAAAACGCGUGCUCCGUUGAAUGGAGUUUAUUAUG [U55A C149U], GGAUCUUCUCGAUCUAACAAAAAAGACAAAUCUGCCACAAAGCUUGAGAGCAUCAUCGGAUGCAGAGGCGUCAGCCUUCGGUGGCGCGAUAGCGCCAACGUUCUCAACUAUGACACACAAAACGCGUGCUCCGUUGAAUGGAGUUUAUCAUG [U55A G71U G117A] is lower in “polymerase ribozyme fitness (log ratio)” value: -1.55 for the first, -3.07 for the second.

For GGAUCUUCUCGAUCUAACAAAAAAGACAAAUCUGCCACAAAGCUUGAGAGCAUCAUCGGAUGCAGAGGCGGCAGCCUUCGAUGGCACGAUAGCGCCAACGUUCUCAACGAUGACACGCAAAACGCGUGCUCCGUUGAAUGGAGUUUAUCGUG [U55A G81A G86A U109G A150G], the “polymerase ribozyme fitness (log ratio)” value was no more than -4.2.
